Key:
his-tagged rhTLR4/MD2 = biological target: T1, his-tagged rhTLR4/MD2 (Homo sapiens, UniProt O00206+Q9Y6Y9); experiment: Immunoprecipitation on TLR4/MD2-coupled beads, eluates analysed by MALDI-TOF mass spectrometry; assay type: binding; settings: beads with TLR4/MD2, 3 h at 4° C., 1 mM Calcium, elution with 10 mM TRIS/2 mM EDTA
T1 construct: purchased R&D SYSTEMS
Description: Anti-His antibody (5 μL, 0.5 mg/mL, Invivogen) and his-tagged rhTLR4/MD2 (5 μL, 1 mg/mL, carrier free, R&D SYSTEMS) were mixed and coupled to Protein A/G Agarose ([…], Thermo Scientific). Trypsin digested peptides of S100A9 were added for 3 h at 4° C. in the presence of 1 mM Calcium. After washing of the beads in HBS/1 mM Ca-buffer for three times bound peptidic fragments were eluted by addition of 10 mM TRIS/2 mM EDTA-buffer and analysed by ESI and MALDI-TOF-mass spectrometry. Identical experiments were performed to analyze the binding of the chemical synthesized peptides of S100A9 (aa63-79), S100A8 (aa55-71) and the corresponding control peptides aa63-79 A5 and aa55-71 A3.

TLR4/MD2 = TLR4/MD2 (Homo sapiens, UniProt O00206+Q9Y6Y9); experiment: Modified S100A9-ELISA: binding of S100A9-wt and mutant proteins to plate-coupled TLR4/MD2; settings: 2 μg/ml protein, two hours at room temperature, absorbance at 450 nm, FIG. 4B/4C
Description: Binding of S100A9 proteins to TLR4/MD2 was analysed by a modified S100A9-ELISA. Briefly, TLR4/MD2 was coupled to the wells of a 96-well plate and served as capturing molecule. After blocking of the unspecific binding sites by PBS/5% skim milk powder plates were washed three times. S100A9-wt or mutant S100A9 proteins were added at a concentration of 2 μg/ml each in the presence and absence of 100 μM Calcium and incubated for two hours at room temperature. Unbound S100A9 was removed by washing the plates for three times followed by the addition of a primary anti-S100A9-antibody (1 μg/ml, polyclonal, rabbit). After a washing step the secondary anti-rabbit-IgG-antibody coupled to HRP (1 μg/ml from Cell Signalling) was added. TMB was used as substrate for HRP to quantify binding by absorbance readings at 450 nm in an ELISA reader (Anthos Mikrosysteme).

Chain of TLR4/MD2 (O00206 24-631 limits assumed): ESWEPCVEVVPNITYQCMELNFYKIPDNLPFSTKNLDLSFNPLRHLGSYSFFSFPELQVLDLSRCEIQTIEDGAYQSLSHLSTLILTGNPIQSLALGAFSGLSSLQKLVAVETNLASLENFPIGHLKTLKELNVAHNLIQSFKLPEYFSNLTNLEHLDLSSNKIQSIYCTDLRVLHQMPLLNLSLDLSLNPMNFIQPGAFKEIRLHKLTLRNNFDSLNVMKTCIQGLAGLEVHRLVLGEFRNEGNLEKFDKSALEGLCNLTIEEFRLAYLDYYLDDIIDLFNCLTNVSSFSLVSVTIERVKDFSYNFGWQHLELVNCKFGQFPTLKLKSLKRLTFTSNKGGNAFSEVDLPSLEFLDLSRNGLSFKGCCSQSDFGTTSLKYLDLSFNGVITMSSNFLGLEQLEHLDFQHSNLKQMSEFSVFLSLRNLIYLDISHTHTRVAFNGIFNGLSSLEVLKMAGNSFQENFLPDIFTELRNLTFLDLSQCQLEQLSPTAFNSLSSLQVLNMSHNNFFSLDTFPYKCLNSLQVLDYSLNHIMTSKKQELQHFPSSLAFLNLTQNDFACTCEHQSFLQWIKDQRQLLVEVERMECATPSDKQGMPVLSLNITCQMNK
Chain of TLR4/MD2 (Q9Y6Y9 17-160 limits assumed): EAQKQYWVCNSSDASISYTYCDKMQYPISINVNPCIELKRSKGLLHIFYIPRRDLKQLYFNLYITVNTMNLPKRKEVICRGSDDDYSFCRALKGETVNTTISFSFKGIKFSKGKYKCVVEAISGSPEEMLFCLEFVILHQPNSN
T1 sequence (O00206 24-631 limits assumed): as the sequence (O00206 24-631 limits assumed) above
T1 sequence (Q9Y6Y9 17-160 limits assumed): as the sequence (Q9Y6Y9 17-160 limits assumed) above

Molecule | binding to TLR4/MD2 (peptide detected in eluate by MALDI-TOF mass spectrometry) (his-tagged rhTLR4/MD2) | binding to the receptor TLR4/MD2 compared to non-mutated protein (S100A9 wt) (TLR4/MD2)
55-71: synthetic peptide, positions 55-71 of human S100A8, complete C-terminal EF hand, FKELDINTDGAVNFQEF | able to bind to TLR4/MD2 | –
63-79: synthetic peptide, amino acid positions 63-79 of S100A9, complete C-terminal EF hand, MEDLDTNADKQLSFEEF | able to bind to TLR4/MD2 | –
S100A9E64A: purified recombinant S100A9 mutant, alanine instead of E64 (protein) MTCKMSQLERNIETIINTFHQYSVKLGHPDTLNQGEFKELVRKDLQNFLKKENKNEKVIEHIMADLDTNADKQLSFEEFIMLMARLTWASHEKMHEGDEGPGHHHKPGLGEGTP | – | weaker binding
S100A9E77A: purified recombinant S100A9 mutant, alanine instead of E77 (protein) MTCKMSQLERNIETIINTFHQYSVKLGHPDTLNQGEFKELVRKDLQNFLKKENKNEKVIEHIMEDLDTNADKQLSFAEFIMLMARLTWASHEKMHEGDEGPGHHHKPGLGEGTP | – | weaker binding
S100A9Q73A: purified recombinant S100A9 mutant, alanine instead of Q73 (protein) MTCKMSQLERNIETIINTFHQYSVKLGHPDTLNQGEFKELVRKDLQNFLKKENKNEKVIEHIMEDLDTNADKALSFEEFIMLMARLTWASHEKMHEGDEGPGHHHKPGLGEGTP | – | weaker binding
S100A9K72A: purified recombinant S100A9 mutant, alanine instead of K72 (protein) MTCKMSQLERNIETIINTFHQYSVKLGHPDTLNQGEFKELVRKDLQNFLKKENKNEKVIEHIMEDLDTNADAQLSFEEFIMLMARLTWASHEKMHEGDEGPGHHHKPGLGEGTP | – | not significantly different
S100A9D65A: purified recombinant S100A9 mutant, alanine instead of D65 (protein) MTCKMSQLERNIETIINTFHQYSVKLGHPDTLNQGEFKELVRKDLQNFLKKENKNEKVIEHIMEALDTNADKQLSFEEFIMLMARLTWASHEKMHEGDEGPGHHHKPGLGEGTP | – | weaker binding

Other lines, results leading:

binding to TLR4/MD2 (peptide detected in eluate by MALDI-TOF mass spectrometry) (his-tagged rhTLR4/MD2) | binding to the receptor TLR4/MD2 compared to non-mutated protein (S100A9 wt) (TLR4/MD2) | Molecule
no binding could be detected | – | 63-79 A5: control peptide, S100A9 positions 63-79 with E64A, D65A, Q73A, E77A and K72A exchanged to alanine (MAALDTNADAALSFAEF) [reference compound]
specific interaction with TLR4/MD2 | – | No. 15: tryptic fragment of human S100A9, amino acid sequence from positions 73 to 85, portion of the C-terminal EF Hand (QLSFEEFIMLMAR; UniProt P06702 73-85, looked up, fragment)
– | not significantly different | S100A9R85A: purified recombinant S100A9 mutant, alanine instead of R85 (protein) MTCKMSQLERNIETIINTFHQYSVKLGHPDTLNQGEFKELVRKDLQNFLKKENKNEKVIEHIMEDLDTNADKQLSFEEFIMLMAALTWASHEKMHEGDEGPGHHHKPGLGEGTP
